Source: US20090180952A1
One block for each binder: values may come before it.

Key:
[1] = target: uPAR on the surface of HeLa cells, Q03405; assay: 125I-ATN-658 saturation binding to HeLa cells
[2] = target: recombinant soluble urokinase plasminogen activator receptor (suPAR, aa 1-279) (UniProt Q03405); assay: direct binding assay (format and antigen form not stated)

uPAR on the surface of HeLa cells, Q03405, sequence (Q03405 23-305 limits assumed): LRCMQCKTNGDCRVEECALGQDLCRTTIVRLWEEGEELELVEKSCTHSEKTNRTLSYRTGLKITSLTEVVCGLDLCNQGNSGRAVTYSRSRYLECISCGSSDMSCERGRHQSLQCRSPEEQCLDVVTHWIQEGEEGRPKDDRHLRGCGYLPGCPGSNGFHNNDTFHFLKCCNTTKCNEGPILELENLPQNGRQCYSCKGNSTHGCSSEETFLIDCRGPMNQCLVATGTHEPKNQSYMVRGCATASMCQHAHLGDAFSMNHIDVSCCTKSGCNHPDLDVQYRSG

Kd [1]: 1.5 nM
B1: mAb ATN-658 (antibody, IgG1, V domains shown)
VL: not shown
VH: VQLQESGPELVKTGASVKISCKASGYSFTSYYMHWVKQSHGKSLEWIGEINPYNGGASYNQKIKGRATFTVDTSSRTAYMQFNSLTSEDSAVYYCARSIYGHSVLDYWGQGTTVTVS
modifications: not checked

Kd [2]: 2 nM
B2: mAb ATN-615 (antibody, IgG1, V domains shown)
VH: VKLQQSGPEVVKPGASVKISCKASGYSFTNFYIHWVKQRPGQGLEWIGWIFHGSDNTEYNEKFKDKATLTADTSSSTAYMQLSSLTSEDSAVYFCARWGPHWYFDVWGQGTTVTVSS
VL: DIVLTQSPDITAASLGQKVTITCSASSSVSYMHWYQQKSGTSPKPWIFEISKLASGVPARFSGSGSGTSYSLTISSMEAEDAAIYYCQQWNYPFTFGGGTKLEIKR
